This note sets out measurements from article PMC7527217 (Science Advances, 2020).

What is called Kd is the constant that tells how readily two partners part at equilibrium.

Like-named read-outs stand apart in the source and are kept apart here.

Assay [1] has as its target recombinant trBcl-2L1 (Trichoplax adhaerens Bcl-2-like protein 1), lacking the 33 N-terminal and 29 C-terminal residues (Trichoplax adhaerens). As to the kind of experiment: ITC. A general note: In ITC the heat of successive injections is recorded.
Assay [2] concerns the target recombinant trBcl-2L2 (Trichoplax adhaerens Bcl-2-like protein 2), lacking the 7 N-terminal and 34 C-terminal residues (Trichoplax adhaerens). As to the kind of experiment: ITC.
The target in a further assay is T1, Flag-tagged trBcl-2L1 (Trichoplax adhaerens, UniProt A0A1B1IJP0 1-215).
T1 sequence (looked up): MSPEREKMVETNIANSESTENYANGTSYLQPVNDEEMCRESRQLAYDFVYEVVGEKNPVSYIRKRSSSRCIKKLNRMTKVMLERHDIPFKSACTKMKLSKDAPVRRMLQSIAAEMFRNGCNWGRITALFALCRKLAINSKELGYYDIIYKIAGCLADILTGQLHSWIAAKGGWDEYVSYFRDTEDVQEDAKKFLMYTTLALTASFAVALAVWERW
As to the kind of experiment: FRET or BRET. In general terms: Bioluminescence resonance energy transfer reports proximity on the nanometre scale.

The next assay addresses T2, Flag-tagged trBcl-2L2 (Trichoplax adhaerens, UniProt A0A1B1IJN9 1-211).
T2 sequence (looked up): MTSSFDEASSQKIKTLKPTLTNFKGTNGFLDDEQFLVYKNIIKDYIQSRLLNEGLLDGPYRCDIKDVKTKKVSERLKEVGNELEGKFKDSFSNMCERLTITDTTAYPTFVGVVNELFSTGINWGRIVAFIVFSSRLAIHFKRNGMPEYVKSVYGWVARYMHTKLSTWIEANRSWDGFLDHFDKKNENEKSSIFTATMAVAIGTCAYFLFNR
As to the kind of experiment: FRET or BRET.

Assay [3] deals with recombinant trBcl-2L1 (Trichoplax adhaerens Bcl-2-like protein 1), lacking the 33 N-terminal and 29 C-terminal residues (Trichoplax adhaerens). As to the kind of experiment: ITC. This is another data set of the same source.
The target in assay [4] is recombinant trBcl-2L2 (Trichoplax adhaerens Bcl-2-like protein 2), lacking the 7 N-terminal and 34 C-terminal residues (Trichoplax adhaerens). As to the kind of experiment: ITC. This is another data set of the same source.
Assay [5] concerns the target recombinant human Bcl-2 (residues 10 to 203) (human, UniProt P10415 10-203). As to the kind of experiment: ITC.
The target in assay [6] is recombinant human Bcl-xL (residues 1 to 209, Δloop45 to 84) (human, UniProt Q07817-1 1-209, Δloop45 to 84). As to the kind of experiment: ITC.
Assay [7] addresses T3, recombinant human Bcl-w (residues 9 to 152) (human, UniProt Q92843 9-152).
T3 sequence (looked up): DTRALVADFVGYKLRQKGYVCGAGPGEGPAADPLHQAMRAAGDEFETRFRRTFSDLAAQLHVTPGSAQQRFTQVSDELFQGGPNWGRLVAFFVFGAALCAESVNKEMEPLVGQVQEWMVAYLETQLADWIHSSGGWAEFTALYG
As to the kind of experiment: ITC.

For assay [8], the target named is recombinant human Mcl-1 (residues 171 to 320) (human, UniProt Q07820 171-320). As to the kind of experiment: ITC.
The target of assay [9] is T4, recombinant human A1/Bfl-1 (residues 1 to 151) (human, UniProt Q16548 1-151).
T4 sequence (looked up): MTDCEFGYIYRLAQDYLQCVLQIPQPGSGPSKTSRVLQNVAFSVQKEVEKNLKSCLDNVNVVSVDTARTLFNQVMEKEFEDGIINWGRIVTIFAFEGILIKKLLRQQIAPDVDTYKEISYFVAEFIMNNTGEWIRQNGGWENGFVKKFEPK
As to the kind of experiment: ITC.

Sequence of recombinant human Mcl-1 (residues 171 to 320) (Q07820 171-320): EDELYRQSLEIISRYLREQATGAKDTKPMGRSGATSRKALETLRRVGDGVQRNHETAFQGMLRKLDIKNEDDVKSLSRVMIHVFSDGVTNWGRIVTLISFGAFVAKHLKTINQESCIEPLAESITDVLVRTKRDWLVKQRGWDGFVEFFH
Sequence of recombinant human Bcl-2 (residues 10 to 203) (P10415 10-203): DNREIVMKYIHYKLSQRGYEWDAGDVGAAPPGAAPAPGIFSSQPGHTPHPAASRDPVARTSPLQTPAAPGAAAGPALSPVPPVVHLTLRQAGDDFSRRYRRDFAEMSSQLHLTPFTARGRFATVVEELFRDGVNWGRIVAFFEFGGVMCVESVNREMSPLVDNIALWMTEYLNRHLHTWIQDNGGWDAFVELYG

hsBim BH3 peptide: the dissociation constant Kd stood at 83 nM in [1] and 41 nM in [2].
Taken in the same sequence, the figures for hsBax BH3 peptide were 7 nM and 15 nM.
In the case of hsPuma BH3 peptide, the Kd is 5 nM in [1] and 81 nM in [2].
For the molecule hsBid BH3 peptide, the Kd came to 124 nM in assay [1] and 170 nM in assay [2].

B1: EGFP-tagged trBak (natural protein, Trichoplax adhaerens, UniProt A0A1B1IJN7 1-251, looked up)
chain: MSSTITIAESLENGENNDEQEEANTSRSQFRVTRAQVIRRQLSANPAHLPVSEQEVINETSSIFRSFVVESYQAERDGGIIAEEVRSFADQVQSSSNQTITPSSPTSEIGRHLAQLGDSYSVRFQNEFRLMITHLDINPGTAYRTFAGVARRLFRDGISWRRIVTLMAFGYQIAIDVMRSGVQGFLSRICNFIVRFISGEHIANWIARQGGWRAARYEGLASPGWPAIIGVATAAAASVFGVLWLSGYFRE
On to B1, for which the FRET efficacy came out at 11.2% with Flag-tagged trBcl-2L1 and 5.45% with Flag-tagged trBcl-2L2.
On to PSSPTSEIGRHLAQLGDSYSVRFQNE [trBak BH3 peptide], for which the Kd in [3] was determined as 1430 nM; in assay [4], 563 nM; in assay [5], 45 nM; in [6], 197 nM; in assay [9], 13 nM. The binding result in [7] and in assay [8] was “binds” each time.

B2: EGFP-tagged trBax (natural protein, Trichoplax adhaerens, UniProt A0A1B1IJP1 1-241, looked up)
chain: MADFTYVLITRSISTIFSSSCLIAMAHVKSVTSTPTTTTTTTTQSCPRREENLKEIAAESKKLFLDFIADRSAKDGQDQGCISQLTREHNELQIEPTSPTIQVARTIRQIGDELDSDPHLNGLLHKLHVTSSTAYSTFRRVAMRIFQDGQFNWGRIITLFFFGYRLTIRVLSESPIVEMIISWIARFIYEICSFWIAESGGWDAITQYIQQADWKNKYTLGLIAVGVLVTAFVTWQRYNSS
For the molecule B2, the FRET efficacy in the assay with Flag-tagged trBcl-2L1 amounted to 5.84%; in the assay with Flag-tagged trBcl-2L2 it was 2.81%.
IEPTSPTIQVARTIRQIGDELDSDPHLN [trBax BH3 peptide]: the Kd is 426 nM in [3]; 728 nM in assay [4]; 3060 nM in [5]; 877 nM in [6]; 767 nM in [7]; 67 nM in assay [8]. In addition, in assay [9], the Kd amounted to 135 nM.
